Columns and labels:
[1] = biological target: DPP-IV as immobilized on the CM5 Biacore sensor (human) (UniProt P27487); assay: SPR (Biacore), DPP-IV immobilized on CM5, Diprotin A in Hepes running buffer
[2] = biological target: soluble extracellular domain of human dipeptidyl peptidase IV (sDPP-IV; residues 31-766), glycosylated (human) (UniProt P27487); assay: enzyme inhibition, fluorogenic substrate Ala-Pro-7-amido-4-trifluoromethylcoumarin, assay buffer, 25° C., glycosylated sDPP-IV
Chain of soluble extracellular domain of human dipeptidyl peptidase IV (sDPP-IV; residues 31-766), glycosylated (human) (P27487 31-766 limits assumed): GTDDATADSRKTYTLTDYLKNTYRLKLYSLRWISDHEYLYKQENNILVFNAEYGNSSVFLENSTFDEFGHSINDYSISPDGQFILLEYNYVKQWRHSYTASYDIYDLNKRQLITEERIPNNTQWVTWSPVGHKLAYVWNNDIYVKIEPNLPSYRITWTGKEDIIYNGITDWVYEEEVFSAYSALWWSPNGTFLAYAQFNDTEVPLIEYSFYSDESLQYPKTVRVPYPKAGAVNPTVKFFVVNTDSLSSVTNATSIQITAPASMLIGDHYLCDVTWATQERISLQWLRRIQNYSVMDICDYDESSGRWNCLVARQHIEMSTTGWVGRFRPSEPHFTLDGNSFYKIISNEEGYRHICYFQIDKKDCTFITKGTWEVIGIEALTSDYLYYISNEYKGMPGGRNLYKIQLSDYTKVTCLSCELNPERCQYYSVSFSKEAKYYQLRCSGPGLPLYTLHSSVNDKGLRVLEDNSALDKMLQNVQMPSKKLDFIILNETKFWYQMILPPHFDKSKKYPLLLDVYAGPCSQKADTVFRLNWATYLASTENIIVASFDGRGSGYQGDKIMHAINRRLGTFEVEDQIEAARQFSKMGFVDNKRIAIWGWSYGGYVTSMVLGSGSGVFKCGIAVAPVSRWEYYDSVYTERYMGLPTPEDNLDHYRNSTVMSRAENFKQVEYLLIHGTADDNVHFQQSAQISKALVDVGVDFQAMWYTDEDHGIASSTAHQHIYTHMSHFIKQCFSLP

Chain of DPP-IV as immobilized on the CM5 Biacore sensor (human) (P27487 31-766 limits assumed): as above

Substance: Diprotin A (Ile-Pro-Ile) (peptide)
- Kd [1]: 3.8 µM
- Ki [2]: 4.63 µM

Source: patent US20070100561A1, “Crystals of DPP-IV” (priority 2002, published 2007)
